{"source": "patent US20140072613A1", "about": "“Compositions and Methods for Treating Cutaneous Scarring” (priority 2012, published 2014)", "assay_in_all_cases": "cell-based or functional assay", "key": {"Met(Y1248D)(h) (human)": {"target": "Met(Y1248D)(h) (human) (UniProt P08581)"}, "PTK5(h) (human)": {"target": "PTK5(h) (human) (UniProt P42685)", "sequence (P42685 whole entry)": "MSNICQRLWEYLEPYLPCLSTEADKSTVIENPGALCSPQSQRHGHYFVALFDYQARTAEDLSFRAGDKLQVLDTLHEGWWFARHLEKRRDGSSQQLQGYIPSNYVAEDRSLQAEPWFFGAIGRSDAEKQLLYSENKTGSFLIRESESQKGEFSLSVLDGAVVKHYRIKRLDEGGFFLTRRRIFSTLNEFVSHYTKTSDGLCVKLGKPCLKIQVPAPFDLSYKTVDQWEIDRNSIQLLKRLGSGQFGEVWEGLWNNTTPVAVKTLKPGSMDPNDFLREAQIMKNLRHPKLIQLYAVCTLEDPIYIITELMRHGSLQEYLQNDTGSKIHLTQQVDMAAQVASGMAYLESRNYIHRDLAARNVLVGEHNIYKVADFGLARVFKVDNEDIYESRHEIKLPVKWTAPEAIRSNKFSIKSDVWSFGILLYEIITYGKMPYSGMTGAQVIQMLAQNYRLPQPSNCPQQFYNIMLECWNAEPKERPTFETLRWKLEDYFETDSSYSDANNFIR"}, "PKG1β(h) (human)": {"target": "T1, PKG1β(h) (human) (UniProt Q13976)", "T1 sequence (looked up)": "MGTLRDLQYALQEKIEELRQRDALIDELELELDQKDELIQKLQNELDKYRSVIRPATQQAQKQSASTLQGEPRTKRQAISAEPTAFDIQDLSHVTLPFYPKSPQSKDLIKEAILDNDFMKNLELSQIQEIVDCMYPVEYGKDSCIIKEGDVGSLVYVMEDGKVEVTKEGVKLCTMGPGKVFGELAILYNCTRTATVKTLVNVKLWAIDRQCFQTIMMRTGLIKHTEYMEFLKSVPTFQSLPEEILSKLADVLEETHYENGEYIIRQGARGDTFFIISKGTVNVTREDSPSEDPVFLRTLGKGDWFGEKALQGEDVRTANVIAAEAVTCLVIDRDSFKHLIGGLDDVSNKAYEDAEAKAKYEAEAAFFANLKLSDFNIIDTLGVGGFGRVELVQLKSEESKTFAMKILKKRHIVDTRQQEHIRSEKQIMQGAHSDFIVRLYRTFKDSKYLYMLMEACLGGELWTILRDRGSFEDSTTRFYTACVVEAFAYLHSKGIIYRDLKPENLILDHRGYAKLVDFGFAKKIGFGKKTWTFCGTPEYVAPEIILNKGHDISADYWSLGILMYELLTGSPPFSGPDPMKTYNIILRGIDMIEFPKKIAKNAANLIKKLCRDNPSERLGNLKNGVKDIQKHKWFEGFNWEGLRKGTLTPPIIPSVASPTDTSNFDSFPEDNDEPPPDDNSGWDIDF"}, "ALK4(h) (human)": {"target": "T2, ALK4(h) (human) (UniProt P36896)", "T2 sequence (looked up)": "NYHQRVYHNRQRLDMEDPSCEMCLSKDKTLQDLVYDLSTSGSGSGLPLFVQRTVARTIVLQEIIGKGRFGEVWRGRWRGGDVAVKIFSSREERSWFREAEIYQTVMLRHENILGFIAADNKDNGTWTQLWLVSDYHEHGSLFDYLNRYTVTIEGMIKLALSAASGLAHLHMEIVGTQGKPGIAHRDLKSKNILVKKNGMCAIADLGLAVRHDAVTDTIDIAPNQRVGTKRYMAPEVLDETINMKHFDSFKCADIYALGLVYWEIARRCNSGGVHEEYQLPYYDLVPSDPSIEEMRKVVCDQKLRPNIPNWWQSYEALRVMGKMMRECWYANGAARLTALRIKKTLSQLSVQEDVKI"}, "JAK3(h) (human)": {"target": "JAK3(h) (human) (UniProt P52333)", "sequence (P52333 781-1124 limits assumed)": "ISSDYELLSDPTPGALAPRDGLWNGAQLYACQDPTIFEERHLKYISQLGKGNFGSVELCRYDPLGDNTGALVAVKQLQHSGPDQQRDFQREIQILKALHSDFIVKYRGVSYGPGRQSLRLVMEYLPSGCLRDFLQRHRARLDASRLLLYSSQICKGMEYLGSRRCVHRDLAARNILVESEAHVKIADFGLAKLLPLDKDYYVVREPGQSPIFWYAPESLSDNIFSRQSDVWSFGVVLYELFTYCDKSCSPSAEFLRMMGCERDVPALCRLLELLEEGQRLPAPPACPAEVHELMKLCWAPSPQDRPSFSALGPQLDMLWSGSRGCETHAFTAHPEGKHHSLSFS"}, "Syk(h) (human)": {"target": "Syk(h) (human) (UniProt P43405)"}, "GRK7(h) (human)": {"target": "T3, GRK7(h) (human) (UniProt Q8WTQ7)", "T3 sequence (looked up)": "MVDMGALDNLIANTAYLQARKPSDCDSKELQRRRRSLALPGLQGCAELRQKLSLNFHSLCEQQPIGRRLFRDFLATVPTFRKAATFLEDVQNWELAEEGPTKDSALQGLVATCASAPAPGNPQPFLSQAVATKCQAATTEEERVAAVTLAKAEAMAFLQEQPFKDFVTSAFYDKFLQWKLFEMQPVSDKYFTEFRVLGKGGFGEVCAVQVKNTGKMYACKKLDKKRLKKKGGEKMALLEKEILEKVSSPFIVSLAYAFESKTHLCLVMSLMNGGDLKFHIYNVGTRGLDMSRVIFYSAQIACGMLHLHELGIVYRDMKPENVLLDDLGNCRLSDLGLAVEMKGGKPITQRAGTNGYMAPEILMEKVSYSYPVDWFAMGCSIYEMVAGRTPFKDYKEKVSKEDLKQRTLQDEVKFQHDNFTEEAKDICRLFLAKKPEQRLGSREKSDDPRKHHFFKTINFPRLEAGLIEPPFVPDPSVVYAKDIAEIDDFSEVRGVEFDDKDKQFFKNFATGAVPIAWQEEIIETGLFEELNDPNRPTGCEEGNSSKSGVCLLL"}, "PDGFRα(D842V)(h) (human)": {"target": "PDGFRα(D842V)(h) (human) (UniProt P16234)", "sequence (P16234 550-1089 D842V limits assumed)": "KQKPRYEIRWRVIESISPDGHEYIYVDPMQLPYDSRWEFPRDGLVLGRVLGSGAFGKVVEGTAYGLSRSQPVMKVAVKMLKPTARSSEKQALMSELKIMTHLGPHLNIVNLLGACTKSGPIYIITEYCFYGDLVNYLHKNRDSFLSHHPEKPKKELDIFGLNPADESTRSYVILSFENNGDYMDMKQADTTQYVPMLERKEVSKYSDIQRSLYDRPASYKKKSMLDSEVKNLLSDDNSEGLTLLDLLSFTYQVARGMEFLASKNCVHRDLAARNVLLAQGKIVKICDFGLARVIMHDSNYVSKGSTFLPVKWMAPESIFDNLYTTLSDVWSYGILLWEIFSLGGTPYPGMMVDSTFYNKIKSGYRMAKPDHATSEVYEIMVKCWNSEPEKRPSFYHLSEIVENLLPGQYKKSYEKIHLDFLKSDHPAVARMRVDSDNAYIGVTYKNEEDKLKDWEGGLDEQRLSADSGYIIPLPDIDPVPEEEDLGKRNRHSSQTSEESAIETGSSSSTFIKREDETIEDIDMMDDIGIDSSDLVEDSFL"}, "CSK(h) (human)": {"target": "CSK(h) (human) (UniProt P41240)", "sequence (P41240 whole entry)": "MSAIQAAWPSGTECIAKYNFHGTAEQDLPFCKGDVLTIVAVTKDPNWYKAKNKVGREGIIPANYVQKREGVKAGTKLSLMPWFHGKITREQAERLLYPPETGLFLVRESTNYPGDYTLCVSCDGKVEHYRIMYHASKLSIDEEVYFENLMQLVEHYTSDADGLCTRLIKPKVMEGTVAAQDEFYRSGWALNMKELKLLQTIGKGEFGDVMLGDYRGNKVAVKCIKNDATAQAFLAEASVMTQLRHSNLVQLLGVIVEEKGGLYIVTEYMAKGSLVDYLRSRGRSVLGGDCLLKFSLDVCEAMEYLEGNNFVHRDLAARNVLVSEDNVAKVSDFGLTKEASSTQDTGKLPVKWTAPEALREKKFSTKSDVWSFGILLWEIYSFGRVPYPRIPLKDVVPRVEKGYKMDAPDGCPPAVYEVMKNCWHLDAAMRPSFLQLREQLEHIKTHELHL"}, "Fer(h) (human)": {"target": "Fer(h) (human) (UniProt P16591)", "sequence (P16591 541-822 limits assumed)": "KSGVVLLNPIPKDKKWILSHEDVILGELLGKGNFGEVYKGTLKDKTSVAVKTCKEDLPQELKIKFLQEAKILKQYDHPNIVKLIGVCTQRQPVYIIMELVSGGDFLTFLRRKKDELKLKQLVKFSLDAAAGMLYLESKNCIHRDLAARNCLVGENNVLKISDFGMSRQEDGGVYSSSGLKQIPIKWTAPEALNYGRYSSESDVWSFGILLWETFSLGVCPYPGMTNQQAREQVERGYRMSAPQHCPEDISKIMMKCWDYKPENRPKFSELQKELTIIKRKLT"}, "IKKα(h) (human)": {"target": "T4, IKKα(h) (human) (UniProt O15111)", "T4 sequence (looked up)": "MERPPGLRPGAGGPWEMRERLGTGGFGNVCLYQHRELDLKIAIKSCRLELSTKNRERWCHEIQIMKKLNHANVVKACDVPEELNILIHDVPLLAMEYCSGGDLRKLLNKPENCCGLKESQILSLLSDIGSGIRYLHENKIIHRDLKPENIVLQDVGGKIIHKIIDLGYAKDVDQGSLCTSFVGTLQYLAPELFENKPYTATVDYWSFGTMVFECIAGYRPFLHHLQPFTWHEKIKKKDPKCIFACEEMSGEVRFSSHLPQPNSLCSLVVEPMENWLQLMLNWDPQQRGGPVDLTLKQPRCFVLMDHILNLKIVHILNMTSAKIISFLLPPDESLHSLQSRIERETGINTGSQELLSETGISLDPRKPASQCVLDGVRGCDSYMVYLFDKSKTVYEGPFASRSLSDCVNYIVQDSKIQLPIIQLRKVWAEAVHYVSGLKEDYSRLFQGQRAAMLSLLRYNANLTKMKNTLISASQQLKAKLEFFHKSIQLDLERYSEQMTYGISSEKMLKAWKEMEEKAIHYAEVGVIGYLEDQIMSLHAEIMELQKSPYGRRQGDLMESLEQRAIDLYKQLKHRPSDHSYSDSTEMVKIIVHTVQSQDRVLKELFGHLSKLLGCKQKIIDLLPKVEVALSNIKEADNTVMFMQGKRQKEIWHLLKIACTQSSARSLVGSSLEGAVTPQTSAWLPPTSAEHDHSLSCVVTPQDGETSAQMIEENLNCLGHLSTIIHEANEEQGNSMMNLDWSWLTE"}, "Haspin(h) (human)": {"target": "T5, Haspin(h) (human) (UniProt Q8TF76)", "T5 sequence (looked up)": "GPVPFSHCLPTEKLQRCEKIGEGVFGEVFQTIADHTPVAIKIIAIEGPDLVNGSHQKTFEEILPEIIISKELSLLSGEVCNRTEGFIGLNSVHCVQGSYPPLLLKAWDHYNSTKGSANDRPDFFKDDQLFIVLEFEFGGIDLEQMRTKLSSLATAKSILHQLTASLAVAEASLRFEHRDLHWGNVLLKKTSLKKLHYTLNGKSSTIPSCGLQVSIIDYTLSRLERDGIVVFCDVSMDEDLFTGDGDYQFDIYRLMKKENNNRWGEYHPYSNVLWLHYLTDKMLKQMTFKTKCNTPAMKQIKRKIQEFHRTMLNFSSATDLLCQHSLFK"}}}
{"substance": "MMI-0500 (peptide)", "values": [{"measurement": "% activity, 100 µM", "setting": "Met(Y1248D)(h) (human)", "value": 218, "unit": "%"}, {"measurement": "% activity, 100 µM", "setting": "PTK5(h) (human)", "value": 96, "unit": "%"}, {"measurement": "% activity, 100 µM", "setting": "PKG1β(h) (human)", "value": 24, "unit": "%"}, {"measurement": "% activity, 100 µM", "setting": "ALK4(h) (human)", "value": 81, "unit": "%"}, {"measurement": "% activity, 100 µM", "setting": "JAK3(h) (human)", "value": 95, "unit": "%"}, {"measurement": "% activity, 100 µM", "setting": "Syk(h) (human)", "value": 5, "unit": "%"}, {"measurement": "% activity, 100 µM", "setting": "GRK7(h) (human)", "value": 93, "unit": "%"}, {"measurement": "% activity, 100 µM", "setting": "PDGFRα(D842V)(h) (human)", "value": 170, "unit": "%"}, {"measurement": "% activity, 100 µM", "setting": "CSK(h) (human)", "value": 2, "unit": "%"}, {"measurement": "% activity, 100 µM", "setting": "Fer(h) (human)", "value": 196, "unit": "%"}, {"measurement": "% activity, 100 µM", "setting": "IKKα(h) (human)", "value": 50, "unit": "%"}, {"measurement": "% activity, 100 µM", "setting": "Haspin(h) (human)", "value": 25, "unit": "%"}]}
